Assay results as given in publication PMC12636033, “Chemical Engineering of Transcription Factors Uncovered Cell-Permeable μMax Modulators”.

B1: dBr_Jan07_07252 (dsDNA)
DNA 1: ATCCTGCCGCTTTCAATCGCCGGACAGCGATCGACAGTCTGTGTTCCGTTGTCCGTGCTG
DNA 2: CAGCACGGACAACGGAACACAGACTGTCGATCGCTGTCCGGCGATTGAAAGCGGCAGGAT
B2: dBr_Jan07_18594 (dsDNA)
DNA 1: CCAACATCTAAGACCCTGGTAGGGCCTTTCCGACCCGTCTGTGTTCCGTTGTCCGTGCTG
DNA 2: CAGCACGGACAACGGAACACAGACGGGTCGGAAAGGCCCTACCAGGGTCTTAGATGTTGG
B3: dBr_Jan07_30609 (dsDNA)
DNA 1: CGGAAGTCAGATAAAAGGTGGTATCGCGGCTTTAAAGTCTGTGTTCCGTTGTCCGTGCTG
DNA 2: CAGCACGGACAACGGAACACAGACTTTAAAGCCGCGATACCACCTTTTATCTGACTTCCG
B4: dBr_Jan07_17648 (dsDNA)
DNA 1: TTGCGCCCCCAGTCCCGGATATCATAGGAACGAGGAGTCTGTGTTCCGTTGTCCGTGCTG
DNA 2: CAGCACGGACAACGGAACACAGACTCCTCGTTCCTATGATATCCGGGACTGGGGGCGCAA
B5: dBr_Jan07_40232 (dsDNA)
DNA 1: TCGCGGAGACACCGCACTACGAGTGGCGAGAAGACCGTCTGTGTTCCGTTGTCCGTGCTG
DNA 2: CAGCACGGACAACGGAACACAGACGGTCTTCTCGCCACTCGTAGTGCGGTGTCTCCGCGA
B6: dBr_Jan07_31951 (dsDNA)
DNA 1: CATGAGAATCGGCCCGGGTTACGTTCGCGGTACAATGTCTGTGTTCCGTTGTCCGTGCTG
DNA 2: CAGCACGGACAACGGAACACAGACATTGTACCGCGAACGTAACCCGGGCCGATTCTCATG
B7: dBr_Jan07_14635 (dsDNA)
DNA 1: CCTAGAATTCCAACATGACTGTCAACTTGGGAATCTGTCTGTGTTCCGTTGTCCGTGCTG
DNA 2: CAGCACGGACAACGGAACACAGACAGATTCCCAAGTTGACAGTCATGTTGGAATTCTAGG
B8: dBr_Jan07_22649 (dsDNA)
DNA 1: TTACATACCAGGACTTATCGCATAGGTAGGCTGAGAGTCTGTGTTCCGTTGTCCGTGCTG
DNA 2: CAGCACGGACAACGGAACACAGACTCTCAGCCTACCTATGCGATAAGTCCTGGTATGTAA
B9: dBr_Jan07_33770 (dsDNA)
DNA 1: GCGACCCTTCCACGTGCGTGTGTTAATGAGCGCATTGTCTGTGTTCCGTTGTCCGTGCTG
DNA 2: CAGCACGGACAACGGAACACAGACAATGCGCTCATTAACACACGCACGTGGAAGGGTCGC
B10: dBr_Jan07_23776 (dsDNA)
DNA 1: CAGCCGCGGCGCCTCTAGCAATCAGGAGCGTCGGTAGTCTGTGTTCCGTTGTCCGTGCTG
DNA 2: CAGCACGGACAACGGAACACAGACTACCGACGCTCCTGATTGCTAGAGGCGCCGCGGCTG
B11: dBr_Jan07_38419 (dsDNA)
DNA 1: ATTGCTCAGTGACACAGATATGAAGCGCTATGCATCGTCTGTGTTCCGTTGTCCGTGCTG
DNA 2: CAGCACGGACAACGGAACACAGACGATGCATAGCGCTTCATATCTGTGTCACTGAGCAAT
B12: dBr_Jan07_18521 (dsDNA)
DNA 1: ACCAATTAGAACGTATCTATGGAGCTTGCCCGATCGGTCTGTGTTCCGTTGTCCGTGCTG
DNA 2: CAGCACGGACAACGGAACACAGACCGATCGGGCAAGCTCCATAGATACGTTCTAATTGGT
B13: dBr_Jan07_00062 (dsDNA)
DNA 1: TGGTGACCTGAGAGGCCGGTTGCTTCAGCCTACAACGTCTGTGTTCCGTTGTCCGTGCTG
DNA 2: CAGCACGGACAACGGAACACAGACGTTGTAGGCTGAAGCAACCGGCCTCTCAGGTCACCA
B14: dBr_Jan07_36343 (dsDNA)
DNA 1: ATCGGTTAAAGTAACTATATTGGGCTTATCGGACCAGTCTGTGTTCCGTTGTCCGTGCTG
DNA 2: CAGCACGGACAACGGAACACAGACTGGTCCGATAAGCCCAATATAGTTACTTTAACCGAT
B15: dBr_Jan07_16464 (dsDNA)
DNA 1: AGATCCAACGAGAGTTATGGACAAACTGGTCCTACAGTCTGTGTTCCGTTGTCCGTGCTG
DNA 2: CAGCACGGACAACGGAACACAGACTGTAGGACCAGTTTGTCCATAACTCTCGTTGGATCT
B16: dBr_Jan07_34791 (dsDNA)
DNA 1: GACTTGCCTACTACGCCAGAATTAGCTAGTTGGGTAGTCTGTGTTCCGTTGTCCGTGCTG
DNA 2: CAGCACGGACAACGGAACACAGACTACCCAACTAGCTAATTCTGGCGTAGTAGGCAAGTC
B17: dBr_Jan07_08921 (dsDNA)
DNA 1: CAGACAAAGTCACTGGGCGAGCATGAACCGTTTGCCGTCTGTGTTCCGTTGTCCGTGCTG
DNA 2: CAGCACGGACAACGGAACACAGACGGCAAACGGTTCATGCTCGCCCAGTGACTTTGTCTG
B18: dBr_Jan07_39455 (dsDNA)
DNA 1: TGAAAGACCTTAGATGGGCTTGTCTCTTGGCGTTTGGTCTGTGTTCCGTTGTCCGTGCTG
DNA 2: CAGCACGGACAACGGAACACAGACCAAACGCCAAGAGACAAGCCCATCTAAGGTCTTTCA
B19: dBr_Jan07_33794 (dsDNA)
DNA 1: TATTAGAATGTCAGCTCTCAATCACGTGATTCGGAAGTCTGTGTTCCGTTGTCCGTGCTG
DNA 2: CAGCACGGACAACGGAACACAGACTTCCGAATCACGTGATTGAGAGCTGACATTCTAATA
B20: dBr_Jan07_22788 (dsDNA)
DNA 1: TTGTTTCGCATCGCTAGGCATTGATAACGGAAGCTGGTCTGTGTTCCGTTGTCCGTGCTG
DNA 2: CAGCACGGACAACGGAACACAGACCAGCTTCCGTTATCAATGCCTAGCGATGCGAAACAA
B21: dBr_Jan07_10789 (dsDNA)
DNA 1: ACGAGTGGCCCTCGCATCGCGGAAGCTAGACTGATTGTCTGTGTTCCGTTGTCCGTGCTG
DNA 2: CAGCACGGACAACGGAACACAGACAATCAGTCTAGCTTCCGCGATGCGAGGGCCACTCGT
B22: dBr_Jan07_19630 (dsDNA)
DNA 1: AAGCGAGCAGATAAGCCTAAGCCCGAGCTGAACAAAGTCTGTGTTCCGTTGTCCGTGCTG
DNA 2: CAGCACGGACAACGGAACACAGACTTTGTTCAGCTCGGGCTTAGGCTTATCTGCTCGCTT
B23: dBr_Jan07_28571 (dsDNA)
DNA 1: TCGTTCTTATTTTGGCACGTGCACCCGCTTTGCTCAGTCTGTGTTCCGTTGTCCGTGCTG
DNA 2: CAGCACGGACAACGGAACACAGACTGAGCAAAGCGGGTGCACGTGCCAAAATAAGAACGA
B24: dBr_Jan07_04879 (dsDNA)
DNA 1: ATAACGGCCCGCCTGGACTGATACTCTGTCGCACCAGTCTGTGTTCCGTTGTCCGTGCTG
DNA 2: CAGCACGGACAACGGAACACAGACTGGTGCGACAGAGTATCAGTCCAGGCGGGCCGTTAT

Target: WT Max (Homo sapiens, UniProt P61244-2 13-93, M65Nle, norleucine written as M; other non-natural residues written as X)
Experiment: PBM; 50-200 nM protein; PBS, 2% milk, BSA, salmon testes DNA, 0.02% Triton X-100
Settings: chain copies: 2; label: surface-attached array probe

Chain of WT Max (P61244 other isoform, or with tags, fused parts or gaps M65Nle): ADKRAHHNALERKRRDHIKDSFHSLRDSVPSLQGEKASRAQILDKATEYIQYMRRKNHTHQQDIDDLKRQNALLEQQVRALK

Binder | binding signal
B1 | -0.55 robust z of log adjusted intensity (ours), mean of two arrays
B2 | -0.86 robust z of log adjusted intensity (ours), mean of two arrays
B3 | -0.46 robust z of log adjusted intensity (ours), mean of two arrays
B4 | -1.18 robust z of log adjusted intensity (ours), mean of two arrays
B5 | -0.86 robust z of log adjusted intensity (ours), mean of two arrays
B6 | -0.54 robust z of log adjusted intensity (ours), mean of two arrays
B7 | -0.81 robust z of log adjusted intensity (ours), mean of two arrays
B8 | -0.77 robust z of log adjusted intensity (ours), mean of two arrays
B9 | 4.84 robust z of log adjusted intensity (ours), mean of two arrays
B10 | -0.83 robust z of log adjusted intensity (ours), mean of two arrays
B11 | -0.96 robust z of log adjusted intensity (ours), mean of two arrays
B12 | -0.67 robust z of log adjusted intensity (ours), mean of two arrays
B13 | -0.8 robust z of log adjusted intensity (ours), mean of two arrays
B14 | -0.56 robust z of log adjusted intensity (ours), mean of two arrays
B15 | -1 robust z of log adjusted intensity (ours), mean of two arrays
B16 | -0.49 robust z of log adjusted intensity (ours), mean of two arrays
B17 | -0.81 robust z of log adjusted intensity (ours), mean of two arrays
B18 | -0.88 robust z of log adjusted intensity (ours), mean of two arrays
B19 | 4.69 robust z of log adjusted intensity (ours), mean of two arrays
B20 | -0.82 robust z of log adjusted intensity (ours), mean of two arrays
B21 | -0.92 robust z of log adjusted intensity (ours), mean of two arrays
B22 | -0.87 robust z of log adjusted intensity (ours), mean of two arrays
B23 | 5.15 robust z of log adjusted intensity (ours), mean of two arrays
B24 | -0.92 robust z of log adjusted intensity (ours), mean of two arrays
